Values of other authors, collected in PMC2726996.

Legend:
[1] = target: EGFR (low-affinity sites) (Homo sapiens) (UniProt P00533)
[2] = target: EGFR (high-affinity sites) (Homo sapiens) (UniProt P00533)

Substance: EGF (from UniProt P01133)
- Kd [1]: 10 nM
- Kd [2]: < 0.1 nM
